Test results taken from patent publication US20040081655A1, “Methods and compositions comprising polycationic compounds” (priority 2001, published 2004).
No end group written: not given here.

Assays:
[1] = Depot formation at the injection site at day 4, labelled TRP-2 peptide/pR60/CpG-ODN (Example 3); type: in vivo, Mice C57Bl/6; settings: injected either alone or in combination with CpG-ODN-Cy5
Experimental: On day 0 mice were injected subcutaneously into the right flank with a total volume of […] containing the above mentioned compounds. Animals were sacrificed at day 4 after injection and photos were taken from the injection sites (FIG. 3).

[2] = Depot formation at the injection site, fluorescence-labelled compounds, photos (Example 2a); design: species or system Mice C57Bl/6; settings: mouse, in vivo, sc
Experimental: On day 0 mice were injected subcutaneously into the right flank with a total volume of 100 μl containing the above mentioned compounds. Animals were sacrificed at the indicated time points after injection and photos were taken from the injection sites (FIG. 2a).

[3] = FACS analyses of lymphoid and non-lymphoid tissues for CpG-ODN-Cy5 (Example 2b); design: species or system Mice C57B1/6; settings: mouse, in vivo, sc
Experimental: Mice were injected subcutaneously into the right flank with a total volume of 100 μl containing the above mentioned compounds. One day after injection, mice were sacrificed and FACS-analyses were performed from secondary lymphoid organs (draining lymph node, spleen) as well as non-lymphoid tissues (lung, liver, kidney, heart) (FIG. 2b).

Substance | presence of the labelled peptide at the injection site [1] | distribution of CpG-ODN-Cy5 after injection [2] | CpG-ODN-Cy5 in secondary lymphoid organs and non-lymphoid tissues (FACS) [3]
TRP-2181-188-peptide-FITC: FITC-labeled TRP-2-Peptide (VYDFFVWL), MHC class I (H-2 Kb) restricted epitope of mouse tyrosinase related protein-2 (also: FITC label, site not given here) | not detectable at the injection site at day 4 |  | 
CpG-ODN-Cy5: phosphothioate-modified, Cy5-labeled oligodinucleotides containing a CpG motif: tcc atg acg ttc ctg atg ct (DNA TCCATGACGTTCCTGATGCT; DNA, all phosphorothioate, methylation of C not given here; Cy5 label) |  | distribution of CpG-ODN-Cy5 all over the skin | detectable in secondary lymphoid organs (draining lymph node, spleen) and non-lymphoid tissues (lung, liver, kidney, heart)
